Assay results reported in patent US20240400635A1 (Novo Nordisk, published 2024).
Numbering of substitutions follows the chain as printed.

B1: [8G, 22E, 26R, 36G]GLP-1(7-37)-(GAQP)x2, … (ligand)
chain: HGEGTFTSDVSSYLEEQAAREFIAWLVKGGGGAQPGAQPCGAQPAHPIPDSSPLLQFGGQVRQRYLYTDDAQQTEAHLEIREDGTVGGAADQSPESLLQLKALKPGVIQILGVKTSRFLCQRPDGALYGSLHFDPEACSFRELLLEDGYNVYQSEAHGLPLHLPGQKSPHRDPAPRGPARFLPLPGLPPALPEPPGILAPQPPDVGSSDPLSLVGGSQGRSPSYAS
modifications: Cys of the spacer (residue 40 of the chain) S-alkylated with substituent Chem. 7
B2: S{Beta-36}-[2-[2-[[2-[2-[2-[[2-[2-[2-[[(4S)-4-carboxy-4-(17-carboxyheptadecanoyl-amino)butanoyl]amino]ethoxy]ethoxy]acetyl]amino]ethoxy]ethoxy]acetyl]amino]-eth … (ligand)
chain: HGEGTFTSDVSSYLEEQAAREFIAWLVKGCGGAQPGAQPGAQPGAQPAHPIPDSSPLLQFGGQVRQRYLYTDDAQQTEAHLEIREDGTVGGAADQSPESLLQLKALKPGVIQILGVKTSRFLCQRPDGALYGSLHFDPEACSFRELLLEDGYNVYQSEAHGLPLHLPGQKSPHRDPAPRGPARFLPLPGLPPALPEPPGILAPQPPDVGSSDPLSLVGGSQGRSPSYES
modifications: Cys36 of the GLP-1 part (GLP-1(7-37) numbering; residue 30 of the chain) S-alkylated with substituent Chem. 7
B3: S{Beta-27}-[2-[2-[[2-[2-[2-[[2-[2-[2-[[(4S)-4-carboxy-4-(17-carboxyheptadecanoyl-amino)butanoyl]amino]ethoxy]ethoxy]acetyl]amino]ethoxy]ethoxy]acetyl]amino]-eth … (ligand)
chain: B2 chain with R20K, E21C, C30G
modifications: Cys27 of the GLP-1 part (GLP-1(7-37) numbering; residue 21 of the chain) S-alkylated with substituent Chem. 7
B4: S{Beta-26}-[2-[2-[[2-[2-[2-[[2-[2-[2-[[(4S)-4-carboxy-4-(17-carboxyheptadecanoyl-amino)butanoyl]amino]ethoxy]ethoxy]acetyl]amino]ethoxy]ethoxy]acetyl]amino]-eth … (ligand)
chain: B2 chain with R20C, C30G, E228A
modifications: Cys26 of the GLP-1 part (GLP-1(7-37) numbering; residue 20 of the chain) S-alkylated with substituent Chem. 7
B5: S{Beta-27}-[2-[2-[[2-[2-[2-[[2-[2-[2-[[(4S)-4-carboxy-4-(17-carboxyheptadecanoyl-amino)butanoyl]amino]ethoxy]ethoxy]acetyl]amino]ethoxy]ethoxy]acetyl]amino]-eth … (ligand)
chain: B2 chain with R20K, E21C, C30G, E228A
modifications: Cys27 of the GLP-1 part (GLP-1(7-37) numbering; residue 21 of the chain) S-alkylated with substituent Chem. 7
B6: S{Beta-27}-[2-[2-[[2-[2-[2-[[2-[2-[2-[[(4S)-4-carboxy-4-(17-carboxyheptadecanoyl-amino)butanoyl]amino]ethoxy]ethoxy]acetyl]amino]ethoxy]ethoxy]acetyl]amino]-eth … (ligand)
chain: B2 chain with E21C, C30G, G219P, E228C
modifications: Cys27 of the GLP-1 part (GLP-1(7-37) numbering; residue 21 of the chain) and Cys180 of the FGF21 part (FGF21(1-181) numbering; residue 228 of the chain) each S-alkylated with substituent Chem. 7
B7: S{Beta-27}-[2-[2-[[2-[2-[2-[[2-[2-[2-[[(4S)-4-carboxy-4-(17-carboxyheptadecanoyl-amino)butanoyl]amino]ethoxy]ethoxy]acetyl]amino]ethoxy]ethoxy]acetyl]amino]-eth … (ligand)
chain: B2 chain with E21C, C30G
modifications: Cys27 of the GLP-1 part (GLP-1(7-37) numbering; residue 21 of the chain) S-alkylated with substituent Chem. 7
B8: S{Beta-26}-[2-[2-[[2-[2-[2-[[2-[2-[2-[[(4S)-4-carboxy-4-(17-carboxyheptadecanoyl-amino)butanoyl]amino]ethoxy]ethoxy]acetyl]amino]ethoxy]ethoxy]acetyl]amino]-eth … (ligand)
chain: B2 chain with R20C, C30G, G219P, E228C
modifications: Cys26 of the GLP-1 part (GLP-1(7-37) numbering; residue 20 of the chain) and Cys180 of the FGF21 part (FGF21(1-181) numbering; residue 228 of the chain) each S-alkylated with substituent Chem. 7
B9: S{Beta-27}-[2-[2-[[2-[2-[2-[[2-[2-[2-[[(4S)-4-carboxy-4-(17-carboxyheptadecanoyl-amino)butanoyl]amino]ethoxy]ethoxy]acetyl]amino]ethoxy]ethoxy]acetyl]amino]-eth … (ligand)
chain: B2 chain with R20K, E21C, C30G, G219P, E228C
modifications: Cys27 of the GLP-1 part (GLP-1(7-37) numbering; residue 21 of the chain) and Cys180 of the FGF21 part (FGF21(1-181) numbering; residue 228 of the chain) each S-alkylated with substituent Chem. 7
B10: S{Beta-27}-[2-[2-[[2-[2-[2-[[2-[2-[2-[[(4S)-4-carboxy-4-(17-carboxyheptadecanoyl-amino)butanoyl]amino]ethoxy]ethoxy]acetyl]amino]ethoxy]ethoxy]acetyl]amino]-eth … (ligand)
chain: HGEGTFTSDVSSYLEEQAAKCFIAWLVKGGGGAQPGAQPGAQPGAQPGAQPGAQPGAQPGAQPGAQPGAQPGAQPGAQPGAQPGAQPGAQPGAQPAHPIPDSSPLLQFGGQVRQRYLYTDDAQQTEAHLEIREDGTVGGAADQSPESLLQLKALKPGVIQILGVKTSRFLCQRPDGALYGSLHFDPEACSFRELLLEDGYNVYQSEAHGLPLHLPGQKSPHRDPAPRGPARFLPLPGLPPALPEPPGILAPQPPDVGSSDPLSLVGGSQGRSPSYES
modifications: Cys27 of the GLP-1 part (GLP-1(7-37) numbering; residue 21 of the chain) S-alkylated with substituent Chem. 7
B11: [8G, 22E, 26R, 36G]GLP-1(7-37)-(GAQP)x2, … (ligand)
chain: HGEGTFTSDVSSYLEEQAAREFIAWLVKGGGGAQPGAQPCGAQPGAQPAHPIPDSSPLLQFGGQVRQRYLYTDDAQQTEAHLEIREDGTVGGAADQSPESLLQLKALKPGVIQILGVKTSRFLCQRPDGALYGSLHFDPEACSFRELLLEDGYNVYQSEAHGLPLHLPGQKSPHRDPAPRGPARFLPLPGLPPALPEPPGILAPQPPDVGSSDPLSLVGPSQGRSPSYCSHGEGTFTSDVSSYLEEQAAREFIAWLVKGGGGAQPGAQPCGAQPGAQPAHPIPDSSPLLQFGGQVRQRYLYTDDAQQTEAHLEIREDGTVGGAADQSPESLLQLKALKPGVIQILGVKTSRFLCQRPDGALYGSLHFDPEACSFRELLLEDGYNVYQSEAHGLPLHLPGQKSPHRDPAPRGPARFLPLPGLPPALPEPPGILAPQPPDVGSSDPLSLVGPSQGRSPSYCS
modifications: Cys of the spacer (residue 40 of the chain) and Cys180 of the FGF21 part (FGF21(1-181) numbering; residue 229 of the chain) each S-alkylated with substituent Chem. 7
B12: {S27-[(28S)-(28,46-Dicarboxy-2,7,16,25,30-pentaoxo-9,12,18,21-tetraoxa-3,6,15,24,29-pentaazahexatetracontan-1-yl)]-[Gly8,36,Glu22,Cys27]-GLP-1(human)-(7-37)-pep … (ligand)
chain: HGEGTFTSDVSSYLEEQAAKCFIAWLVKGGGGAQPGAQPGAQPGAQPGAQPGAQPGAQPGAQPGAQPGAQPGAQPGAQPGAQPGAQPGAQPGAQPGAQPGAQPGAQPGAQPGAQPGAQPGAQPGAQPGAQPGAQPGAQPGAQPGAQPGAQPGAQPGAQPAHPIPDSSPLLQFGGQVRQRYLYTDDAQQTEAHLEIREDGTVGGAADQSPESLLQLKALKPGVIQILGVKTSRFLCQRPDGALYGSLHFDPEACSFRELLLEDGYNVYQSEAHGLPLHLPGQKSPHRDPAPRGPARFLPLPGLPPALPEPPGILAPQPPDVGSSDPLSLVGGSQGRSPSYES
modifications: Cys27 of the GLP-1 part (GLP-1(7-37) numbering; residue 21 of the chain) S-alkylated with (28S)-(28,46-Dicarboxy-2,7,16,25,30-pentaoxo-9,12,18,21-tetraoxa-3,6,15,24,29-pentaazahexatetracontan-1-yl) (substituent Chem. 7)
B13: S{Beta-27}-[2-[2-[[2-[2-[2-[[2-[2-[2-[[(4S)-4-carboxy-4-(17-carboxyheptadecanoyl-amino)butanoyl]amino]ethoxy]ethoxy]acetyl]amino]ethoxy]ethoxy]acetyl]amino]-eth … (ligand)
chain: HGEGTFTSDVSSYLEEQAAKCFIAWLVKGGGGAQPGAQPGAQPGAQPGAQPGAQPGAQPGAQPAHPIPDSSPLLQFGGQVRQRYLYTDDAQQTEAHLEIREDGTVGGAADQSPESLLQLKALKPGVIQILGVKTSRFLCQRPDGALYGSLHFDPEACSFRELLLEDGYNVYQSEAHGLPLHLPGQKSPHRDPAPRGPARFLPLPGLPPALPEPPGILAPQPPDVGSSDPLSLVGGSQGRSPSYAS
modifications: Cys27 of the GLP-1 part (GLP-1(7-37) numbering; residue 21 of the chain) S-alkylated with substituent Chem. 7
B14: S{Beta-27}-[2-[2-[[2-[2-[2-[[2-[2-[2-[[(4S)-4-carboxy-4-(17-carboxyheptadecanoyl-amino)butanoyl]amino]ethoxy]ethoxy]acetyl]amino]ethoxy]ethoxy]acetyl]amino]-eth … (ligand)
chain: B13 chain with A244E
modifications: Cys27 of the GLP-1 part (GLP-1(7-37) numbering; residue 21 of the chain) S-alkylated with substituent Chem. 7
B15: [8G, 22E, 36G]GLP-1(7-37)-(GAQP)x2, … (ligand)
chain: HGEGTFTSDVSSYLEEQAAKEFIAWLVKGGGGAQPGAQPCGAQPGAQPAHPIPDSSPLLQFGGQVRQRYLYTDDAQQTEAHLEIREDGTVGGAADQSPESLLQLKALKPGVIQILGVKTSRFLCQRPDGALYGSLHFDPEACSFRELLLEDGYNVYQSEAHGLPLHLPGQKSPHRDPAPRGPARFLPLPGLPPALPEPPGILAPQPPDVGSSDPLSLVGGSQGRSPSYAS
modifications: Cys of the spacer (residue 40 of the chain) S-alkylated with substituent Chem. 7

Assays:
Assay in all cases: cell-based or functional assay
[1] = molecular target: FGF receptor/BKL complex (human, UniProt Q86Z14 1-1044)
FGF receptor/BKL complex, sequence (Q86Z14 whole entry, one chain of several): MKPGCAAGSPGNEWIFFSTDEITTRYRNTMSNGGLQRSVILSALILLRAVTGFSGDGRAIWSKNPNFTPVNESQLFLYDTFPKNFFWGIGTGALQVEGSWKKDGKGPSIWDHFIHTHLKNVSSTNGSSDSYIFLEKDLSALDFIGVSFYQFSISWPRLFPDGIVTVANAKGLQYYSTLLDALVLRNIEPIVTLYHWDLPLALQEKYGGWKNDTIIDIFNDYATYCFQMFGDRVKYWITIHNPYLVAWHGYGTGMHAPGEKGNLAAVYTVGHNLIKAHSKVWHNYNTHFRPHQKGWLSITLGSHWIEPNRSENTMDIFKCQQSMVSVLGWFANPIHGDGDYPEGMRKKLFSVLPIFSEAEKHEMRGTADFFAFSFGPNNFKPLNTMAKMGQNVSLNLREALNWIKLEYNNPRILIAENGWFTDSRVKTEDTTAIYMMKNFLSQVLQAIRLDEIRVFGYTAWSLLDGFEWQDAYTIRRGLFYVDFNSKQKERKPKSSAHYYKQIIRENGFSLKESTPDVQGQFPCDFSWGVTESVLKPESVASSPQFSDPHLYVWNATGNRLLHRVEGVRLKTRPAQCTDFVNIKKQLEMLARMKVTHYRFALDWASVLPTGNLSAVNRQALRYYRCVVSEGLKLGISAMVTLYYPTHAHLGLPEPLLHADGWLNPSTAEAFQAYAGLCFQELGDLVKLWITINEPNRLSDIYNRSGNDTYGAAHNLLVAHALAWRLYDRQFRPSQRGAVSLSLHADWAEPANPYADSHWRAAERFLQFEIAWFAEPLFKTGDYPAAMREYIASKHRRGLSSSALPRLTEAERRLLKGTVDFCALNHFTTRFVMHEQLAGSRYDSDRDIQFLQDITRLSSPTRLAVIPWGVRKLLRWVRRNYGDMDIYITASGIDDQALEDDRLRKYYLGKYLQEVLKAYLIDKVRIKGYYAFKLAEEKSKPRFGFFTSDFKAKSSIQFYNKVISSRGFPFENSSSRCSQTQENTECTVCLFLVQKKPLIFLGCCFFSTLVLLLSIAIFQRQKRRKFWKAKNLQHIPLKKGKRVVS

[2] = molecular target: T1, human GLP-1 receptor (human, UniProt P43220 24-463)
[3] = molecular target: T1, human GLP-1 receptor; remark: listed apart in the source

Binder	FGF1 receptor potency [EC50] nM 0.1% HSA [1] [nM]	FGF21 receptor potency [EC50] nM 0% HSA [1] [nM]	GLP-1 receptor potency [EC50] pM 0% HSA [2] [pM]	GLP-1 receptor potency [EC50] pM 1% HSA [2] [pM]	GLP-1R potency loss against Chem. 24, absence of HSA [3] [fold]	GLP-1R potency loss against Chem. 24, presence of HSA [3] [fold]
B1	0.57	0.32	28.2	222		
B2	0.73	0.41	54.6	394		
B3	0.64	0.45	13.8	78.7		
B4	0.51	0.43	67.4	397	> 10	
B5	0.38	0.13	16.9	75.4		
B6	8	1.2	11.4	389		
B7	0.43	0.17	17.2	104		
B8	8.97	0.24	224	4410	40	26
B9	7.57	0.2	18	391		
B10	1.14	0.47	9.5	103		
B11	18	0.22	29.5	450		
B12	1.42	0.67	9.8	203		
B13	0.45	0.24	15.7	106		
B14	0.87	0.41	9.8	66.6		
B15	1.36	0.19	92.3	394		
